Earlier results on one substance are cited in publication PMC4926285.

The data set deals with insulin receptor (site 1) site 1 (L1 and carboxy-terminal α-chain) (Homo sapiens) (UniProt P06213).
UniProt P06213, sequence (P06213 28-182): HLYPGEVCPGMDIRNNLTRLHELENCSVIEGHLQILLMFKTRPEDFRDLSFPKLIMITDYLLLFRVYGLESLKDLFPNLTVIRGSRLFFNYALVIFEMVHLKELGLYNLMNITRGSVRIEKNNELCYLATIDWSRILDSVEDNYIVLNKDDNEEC

insulin, sequence (P01308 90-110): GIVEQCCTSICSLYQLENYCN

The term Kd denotes the free concentration of one partner at which half of the binding sites on the other are occupied at equilibrium, for simple one-to-one binding. For the substance insulin (from UniProt P01308), the Kd is 6.4 nM.
